This assay concerns the target T1, native human C1q (CompTech) (human, UniProt P02745 23-245; P02746 28-253; P02747 29-245).
T1 construct: the three subunits are from general knowledge; also called hC1q
Description: SPR (BIACORE T200, 37 C, pH 7.4), hC1r2s2 captured by immobilised IPN009VH2Vk3-SG1148, hC1q 100 nM then buffer, response normalised to C1r2s2 = 100 RU. The source says:
As the amount of capture, 200 resonance unit (RU) was aimed. […] The sensor surface was regenerated every cycle, using 3 M MgCl₂ (prepared in-house). The sensorgrams were obtained using BIACORE® T200 evaluation software, version 2.0 (Cytiva). […] For comparison of these sensorgrams, binding response of C1r2s2 was normalized as 100 RU.
Background: In SPR one partner is held on a chip, and binding of the other changes the refractive index at the surface.

T1 sequence (P02745 23-245 limits assumed, chain 1 of 3): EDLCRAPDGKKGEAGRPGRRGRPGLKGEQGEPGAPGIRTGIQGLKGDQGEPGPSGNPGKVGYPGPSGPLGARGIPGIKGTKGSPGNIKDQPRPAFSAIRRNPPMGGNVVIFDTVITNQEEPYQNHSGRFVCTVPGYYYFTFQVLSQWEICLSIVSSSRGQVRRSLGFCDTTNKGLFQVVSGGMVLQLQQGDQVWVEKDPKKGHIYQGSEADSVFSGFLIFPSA
T1 sequence (P02746 28-253 limits assumed, chain 2 of 3): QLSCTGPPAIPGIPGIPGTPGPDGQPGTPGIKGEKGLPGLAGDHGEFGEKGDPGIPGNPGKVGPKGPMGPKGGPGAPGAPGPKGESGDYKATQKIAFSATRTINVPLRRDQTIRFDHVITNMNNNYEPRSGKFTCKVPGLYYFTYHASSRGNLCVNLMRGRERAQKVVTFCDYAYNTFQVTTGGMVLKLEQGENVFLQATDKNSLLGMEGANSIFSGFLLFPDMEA
T1 sequence (P02747 29-245 limits assumed, chain 3 of 3): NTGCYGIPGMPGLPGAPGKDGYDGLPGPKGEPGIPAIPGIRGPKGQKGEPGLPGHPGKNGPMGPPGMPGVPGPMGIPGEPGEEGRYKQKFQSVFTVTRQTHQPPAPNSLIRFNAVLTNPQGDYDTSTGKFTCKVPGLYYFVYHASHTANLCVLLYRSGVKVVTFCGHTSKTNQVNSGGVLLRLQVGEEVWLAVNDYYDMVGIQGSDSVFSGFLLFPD

B1: recombinant human C1r2s2 tetramer (other)
chain 1: EPTMYGEILSPNYPQAYPSEVEKSWDIEVPEGYGIHLYFTHLDIELSENCAYDSVQIISGDTEEGRLCGQRSSNNPHSPIVEEFQVPYNKLQVIFKSDFSNEERFTGFAAYYVATDINECTDFVDVPCSHFCNNFIGGYFCSCPPEYFLHDDMKNCGVNCSGDVFTALIGEIASPNYPKPYPENSRCEYQIRLEKGFQVVVTLRREDFDVEAADSAGNCLDSLVFVAGDRQFGPYCGHGFPGPLNIETKSNALDIIFQTDLTGQKKGWKLRYHGDPMPCPKEDTPNSVWEPAKAKYVFRDVVQITCLDGFEVVEGRVGATSFYSTCQSNGKWSNSKLKCQPVDCGIPESIENGKVEDPESTLFGSVIRYTCEEPYYYMENGGGGEYHCAGNGSWVNEVLGPELPKCVPVCGVPREPFEEKQRIIGGSDADIKNFPWQVFFDNPWAGGALINEYWVLTAAHVVEGNREPTMYVGSTSVQTSRLAKSKMLTPEHVFIHPGWKLLEVPEGRTNFDNDIALVRLKDPVKMGPTVSPICLPGTSSDYNLMDGDLGLISGWGRTEKRDRAVRLKAARLPVAPLRKCKEVKVEKPTADAEAYVFTPNMICAGGEKGMDSCKGDSGGAFAVQDPNDKTKFYAAGLVSWGPQCGTYGLYTRVKNYVDWIMKTMQENSTPRED
chain 2: SIPIPQKLFGEVTSPLFPKPYPNNFETTTVITVPTGYRVKLVFQQFDLEPSEGCFYDYVKISADKKSLGRFCGQLGSPLGNPPGKKEFMSQGNKMLLTFHTDFSNEENGTIMFYKGFLAYYQAVDLDECASRSKLGEEDPQPQCQHLCHNYVGGYFCSCRPGYELQEDRHSCQAECSSELYTEASGYISSLEYPRSYPPDLRCNYSIRVERGLTLHLKFLEPFDIDDHQQVHCPYDQLQIYANGKNIGEFCGKQRPPDLDTSSNAVDLLFFTDESGDSRGWKLRYTTEIIKCPQPKTLDEFTIIQNLQPQYQFRDYFIATCKQGYQLIEGNQVLHSFTAVCQDDGTWHRAMPRCKIKDCGQPRNLPNGDFRYTTTMGVNTYKARIQYYCHEPYYKMQTRAGSRESEQGVYTCTAQGIWKNEQKGEKIPRCLPVCGKPVNPVEQRQQIIGGQKAKMGNFPWQVFTNIHGRGGGALLGDRWILTAAHTLYPKEHEAQSNASLDVFLGHTNVEELMKLGNHPIRRVSVHPDYRQDESYNFEGDIALLELENSVTLGPNLLPICLPDNDTFYDLGLMGYVSGFGVMEEKIAHDLRFVRLPVANPQACENWLRGKNRMDVFSQNMFCAGHPSLKQDACQGDAGGVFAVRDPNTDRWVATGIVSWGIGCSRGYGFYTKVLNYVDWIKKEMEEED
notes: C1s and C1r co-expressed in HEK293 and purified from the supernatant as tetramer; also called hC1r2s2
Regarding B1, the binding result is “binds”.
